Source: PMC4841774 (eLife, 2016)

What was measured:
[1] = molecular target: MTA1-A (residues 162–354) (human) (UniProt Q13330); assay: SEC-MALS; gel-filtrated co-expressed complexes at 1 mg/ml reapplied to Superdex S200; Optilab T-rEX and DAWN HELEOS detectors
[2] = molecular target: MTA1-B (residues 162–546) (human) (UniProt Q13330); assay: affinity purification with mass spectrometry; Flag-tagged MTA1 fragments co-transfected with HDAC1 in HEK293F; complexes purified on FLAG resin; endogenous RBBP4/7 identified by peptide mass spectrometry; ratio by densitometry of the SDS-PAGE gel (ImageJ)
[3] = molecular target: MTA1-C (residues 162–715) (human) (UniProt Q13330); assay: as above
[4] = molecular target: T1, HDAC1 (residues 1–482), untagged (human, UniProt Q13547 1-482); assay: SAXS; purified co-expressed complexes, 1 to 5 mg/ml, 25°C, Diamond B21; ab initio envelopes; settings: both partners purified
T1 construct: Histone deacetylase 1 (HDAC1), residues 1-482; source: HEK293F, co-transfected with MTA1 fragments, co-purified (FLAG resin through MTA1, TEV elution, Superdex S200)

[5] = molecular target: T2, RBBP4 (residues 1–425), untagged (human, UniProt Q09028 1-425); assay: SEC-MALS; gel-filtrated co-expressed complexes at 1 mg/ml reapplied to Superdex S200; Optilab T-rEX and DAWN HELEOS detectors; settings: both partners purified
T2 construct: also called RbAp48; source: HEK293F, co-transfected with MTA1 fragments, co-purified (FLAG resin through MTA1, TEV elution, Superdex S200)

[6] = molecular target: the molecule itself; assay: as above

T2 sequence (Q09028 whole entry, the tested form may be a part): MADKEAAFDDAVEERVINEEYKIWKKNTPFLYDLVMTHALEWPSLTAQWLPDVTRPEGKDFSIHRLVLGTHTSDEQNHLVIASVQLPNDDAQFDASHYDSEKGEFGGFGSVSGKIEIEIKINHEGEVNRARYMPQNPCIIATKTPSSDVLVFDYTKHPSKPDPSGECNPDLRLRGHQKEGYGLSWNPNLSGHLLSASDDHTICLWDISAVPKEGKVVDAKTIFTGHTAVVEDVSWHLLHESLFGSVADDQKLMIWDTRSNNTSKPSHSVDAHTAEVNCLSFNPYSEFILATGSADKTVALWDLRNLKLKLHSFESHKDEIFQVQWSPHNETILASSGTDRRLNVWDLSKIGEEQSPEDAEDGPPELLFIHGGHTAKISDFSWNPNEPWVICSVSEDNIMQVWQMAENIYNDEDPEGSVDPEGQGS
T1 sequence (Q13547 whole entry, the tested form may be a part): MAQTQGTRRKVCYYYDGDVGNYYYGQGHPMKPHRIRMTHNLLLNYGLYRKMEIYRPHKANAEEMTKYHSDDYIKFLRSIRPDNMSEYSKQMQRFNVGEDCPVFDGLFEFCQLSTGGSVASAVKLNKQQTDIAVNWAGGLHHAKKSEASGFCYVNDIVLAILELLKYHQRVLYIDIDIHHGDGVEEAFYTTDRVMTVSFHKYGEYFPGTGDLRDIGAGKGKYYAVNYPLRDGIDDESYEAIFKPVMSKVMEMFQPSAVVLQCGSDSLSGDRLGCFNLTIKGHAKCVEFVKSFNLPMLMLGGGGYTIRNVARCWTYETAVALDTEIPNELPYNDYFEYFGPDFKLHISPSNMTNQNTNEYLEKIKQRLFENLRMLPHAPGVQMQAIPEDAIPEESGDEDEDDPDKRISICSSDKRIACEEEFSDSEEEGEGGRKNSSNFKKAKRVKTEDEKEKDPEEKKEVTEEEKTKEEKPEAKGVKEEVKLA

## MTA1-A (residues 162–354) (from UniProt Q13330 162-354) (domain or fragment)
[1]
  stoichiometry N (copies in the complex): 2

## endogenous RBBP4/7 (from UniProt Q09028 1-425) (natural protein)
[2]
  ratio HDAC1:RBBP4/7 (gel densitometry) (RBBP4/7 per HDAC1): 1
[3]
  ratio HDAC1:RBBP4/7 (gel densitometry) (RBBP4/7 per HDAC1): 1.5

B1: MTA1-B (residues 162–546) (domain or fragment, human, UniProt Q13330 162-546, looked up)
chain: ADKGEIRVGNRYQADITDLLKEGEEDGRDQSRLETQVWEAHNPLTDKQIDQFLVVARSVGTFARALDCSSSVRQPSLHMSAAAASRDITLFHAMDTLHKNIYDISKAISALVPQGGPVLCRDEMEEWSASEANLFEEALEKYGKDFTDIQQDFLPWKSLTSIIEYYYMWKTTDRYVQQKRLKAAEAESKLKQVYIPNYNKPNPNQISVNNVKAGVVNGTGAPGQSPGAGRACESCYTTQSYQWYSWGPPNMQCRLCASCWTYWKKYGGLKMPTRLDGERPGPNRSNMSPHGLPARSSGSPKFAMKTRQAFYLHTTKLTRIARRLCREILRPWHAARHPYLPINSAAIKAECTARLPEASQSPLVLKQAVRKPLEAVLRYLETHPR
notes: Captured on FLAG resin by the tag, then released with TEV; Two copies in the dimeric MTA1-B:HDAC1:RBBP4 complex by MALS; not shown: His10, N-terminal, cleaved; Flag3, N-terminal, cleaved
[4]
  binding result: binds
[5]
  binding result: binds
[6]
  stoichiometry N: 2 copies in the complex
